How the values were obtained:
Format in all cases: physicochemical
[1] = system: zinc- and resorcinol-bound hexamer; assay: Hexamer dissociation kinetics by CD after dilution; conditions: 250 μM ZnCl2, 25 mM resorcinol; for Hexamer dissociation t1/2: 600 μM insulin or lispro, 25 mM tris pH 8.0, 150-fold dilution, 25 °C, ellipticity at 222 nm over 120 s, at least two separate HPLC fractions, different days
Description: We measured the half-life (t1/2) for dissociation of the hexamer form of each lispro variant by monitoring the change in negative ellipticity at 222 nm over time after dilution (Figs. 3A, S4, and S5). Insulin and lispro variants were formulated to mimic the pharmaceutical formulation (600 μM insulin, 25 mM resorcinol, 250 μM ZnCl2); resorcinol was used as the phenolic ligand to slow dissociation ([30]). […] Monitoring dissociation processes faster than that of lispro is limited by the mixing time of this experiment, though comparisons to human insulin can still be made.
Samples were dialyzed overnight against 28.6 mM tris buffer, pH 8.0, then formulated as 600 μM insulin or lispro, 250 μM ZnCl2, 25 mM resorcinol, 25 mM tris, pH 8.0. A 20 μl aliquot of the formulation solution was injected into a stirred buffer solution containing 2.98 ml of 25 mM tris, pH 8.0 (150-fold dilution) at 25 °C. Ellipticity was monitored over 120 s at 222 nm. A typical run led to a rapid drop in CD signal as mixing occurred (∼5 s), then a gradual rise to an ellipticity representative of an insulin monomer. Data preceding the timepoint with the greatest negative ellipticity represented the mixing time and were omitted from further analysis. […] Dissociation data were fit to a mono-exponential function using Scipy (Python). The data presented here are from at least two separate HPLC fractions, measured on different days. […]
Circular dichroism spectroscopy: […]
Kinetic measurements: Insulin or lispro samples in 100 mM sodium phosphate buffer pH 8.0 were dialyzed overnight against 28.6 mM tris buffer, pH 8.0 (Slide -A-Lyzer dialysis cassettes, 3.5 kDa MWCO, ThermoFisher). Samples were formulated as follows: 600 µM lispro, 250 µM ZnCl 2, 25 mM resorcinol, 25 mM tris buffer, pH 8. A 20 µL volume of the insulin formulation was injected into a stirred buffer solution containing 2.98 mL of 25 mM tris, pH 8.0 in a 10 mm quartz cuvette (150-fold dilution). Ellipticity was m onitored at 222 nm over 120 s (1 s kinetic interval, 0.5 s time constant) at 25°C. A typical run led to a rapid drop in CD signal as mixing occurred (~5 s), then a gradual rise to an equilibrium ellipticity representative of an insulin monomer. Data preceding […]
omitted from further analysis. Runs were discarded if the maximum change in mean residue […]
remaining data were fit to a mono -exponential function using Scipy (Python); data presented here are from at least two separate HPLC fractions, measured on two different days.
An equilibrium spectrum for each protein was obtained after dilution; all spectra were indicative of an insulin monomer (Figure S3). The CD spectrum of lispro under pre -dilution formulation conditions was obtained using a 0.1 mm quartz cuvette. […]

[2] = ANS fluorescence (conformational disorder); conditions: 1 μM lispro variant, 5 μM ANS, 100 mM phosphate, pH 8.0, ambient temperature, 350 nm excitation; mean ± SD, three separate HPLC fractions
Description: Figure 4 Fibrillation of lispro variants.A, lispro variants (60 μM in 100 mM phosphate buffer, pH 8.0) were incubated at 37 °C with vigorous shaking; fibril formation was monitored by ThT fluorescence. Fibrillation runs were performed on two separate HPLC fractions, each in triplicate or quadruplicate, on two separate days. B–E, TEM images of lispro (B), KP-4R-F (C), KP-4S-F (D), and KP-44-diF (E) aggregates. F, ANS emission spectra of lispro variants (1 μM lispro variant labeled with 5 μM ANS in 100 mM phosphate buffer, pH 8.0). The data presented here indicate the mean ± SD for each variant from measurements of three separate HPLC fractions. 44-diF, 4,4-difluoroproline; 4R-F, 4R-fluoroproline; 4S-F, 4S-fluoroproline; ThT, thioflavin T. […]
Lispro variants (1 μM) were mixed with 5 μM ANS in 100 mM phosphate buffer, pH 8.0. Fluorescence emission spectra were measured at ambient temperature (350 nm excitation). Measurements for each lispro were performed in triplicate from three separate HPLC fractions. […]
Transmission electron microscopy: […]
Lispro variants (1 µM) were mixed with 5 µM ANS in 100 mM phosphate buffer, pH 8.0.
Fluorescence emission spectra were measured in 1 cm quartz cuvettes at ambient temperature using a PTI QuantaMaster fluorescence spectrofluorometer. A 2 nm s -1 scan rate and 350 nm excitation wavelength were used. Measurements for each variant were performed in triplicate from three separate HPLC fractions.

[3] = Far-UV circular dichroism (secondary structure); conditions: for Ellipticity ratio (208/222 nm): 60 µM insulin or lispro variant, 100 mM phosphate, pH 8.0
Description: Figure 2 Biological activity and CD spectroscopy of lispro variants.A, lispros were injected subcutaneously into diabetic mice, and blood glucose was measured over time after injection. The data presented here represent the mean ± SD of 3 to 6 biological replicates. B–E, far-UV circular dichroism spectra (60 μM lispro in […] phosphate buffer, pH 8.0). […] 4R-F, 4R-fluoroproline; 4S-F, 4S-fluoroproline.
The secondary structure of each insulin lispro variant was probed by circular dichroism spectroscopy. […] All lispro samples were further analyzed by analytical ultracentrifugation (Fig. S3). To determine the dissociation constant of each variant, we fit the data to a reversible monomer-dimer equilibrium ([29]). […]
Circular dichroism spectroscopy:
Equilibrium measurements: The circular dichroism spectra of insulin or lispro samples (60 µM in
100 mM sodium phosphate, pH 8.0) were measured at 25°C in 1 mm quartz cuvettes using a step
size of 0.5 nm and averaging time of 1 s on an Aviv Model 430 Circular Dichroism
Spectrophotom eter. A reference buffer spectrum was subtracted from each sample spectrum. […]
Analytical ultracentrifugation: […]

Row | Substance | Hexamer dissociation t1/2 [1] [s] | ANS emission maximum [2] [nm] | Ellipticity ratio (208/222 nm) ([3]; 25 °C) | hexamer dissociation ([1]; 600 μM protein, 150-fold dilution, pH 8.0, 25 °C, CD 222 nm) | oligomeric state at 60 μM ([3]; 60 μM, statement in discussion of CD spectra) | CD spectrum ([3]; far-UV CD, 60 μM lispro in 10 mM phosphate buffer, pH 8.0 (Fig. 2; SI: 100 mM sodium phosphate), 25 °C)
1 | KP-4R-F: insulin lispro with ProB29 replaced by 4R-fluoroproline | 10.2 ± 1.6 | 464 ± 4 | 1.62 ± 0.06 | – | – | –
2 | KP-4S-F: insulin lispro with ProB29 replaced by 4S-fluoroproline | 11.2 ± 3.3 | 463 ± 6 | 1.59 ± 0.06 | – | – | –
3 | KP-44-diF: insulin lispro with ProB29 replaced by 4,4-difluoroproline | 9.9 ± 2.9 | 462 ± 5 | 1.61 ± 0.05 | – | – | –
4 | insulin lispro: fast-acting insulin with inversion of the residues ProB28 and LysB29; Humalog, Eli Lilly [reference compound] | – | 466 ± 2 | 1.63 ± 0.07 | dissociated significantly more rapidly than human insulin | monomeric | increased negative ellipticity at 208 nm and decreased negative ellipticity at 222 nm

— publication PMC11154709, “4S-fluorination of ProB29 in insulin lispro slows fibril formation” (The Journal of Biological Chemistry, 2024)
